Source: article PMC5666114

Biological target: Anbu-1 protein from Pseudomonas aeruginosa (Pa-Anbu), wild type (Pseudomonas aeruginosa PAO1)
Assay: SEC-MALS; static light scattering after Superdex S200 10/300 GL; 100 µl protein at 0.5, 1 or 2 mg/ml; 30 mM MOPS/NaOH pH 7.2, 150 mM NaCl; three independent experiments

## Anbu-1 protein from Pseudomonas aeruginosa (Pa-Anbu), wild type (natural protein)
  stoichiometry N: 12
